Measurements published in US20150086555A1.

Tests used:
Conditions in all cases: remark: other sources report otherwise
[1] = biological target: T1, recombinant soluble homotrimeric HA of A/Wisconsin/67/05 (H3N2) (Influenza A virus A/Wisconsin/67/2005(H3N2)); test: trimeric HA microarray, transfection supernatant set 1
[2] = biological target: recombinant soluble homotrimeric HA of A/Netherlands/219/03 (H7N7) (Influenza A virus A/Netherlands/219/03(H7N7)); test: HA microarray, control antibody
[3] = biological target: recombinant soluble homotrimeric HA of A/duck/Yangzhou/02/05 (H8N4) (Influenza A virus A/duck/Yangzhou/02/2005(H8N4)); test: HA microarray, control antibody
[4] = biological target: T1, recombinant soluble homotrimeric HA of …; test: HA microarray, control antibody
[5] = biological target: recombinant soluble homotrimeric HA of A/swine/Ontario/01911-2/99 (H4N6) (Influenza A virus A/Swine/Ontario/01911-2/99 (H4N6)); test: HA microarray, control antibody
[6] = biological target: recombinant soluble homotrimeric HA of A/Solomon Islands/3/06 (H1N1) (Influenza A virus A/Solomon Islands/3/2006(H1N1)); test: HA microarray, control antibody
[7] = biological target: recombinant soluble homotrimeric HA of A/Japan/305/57 (H2N2) (Influenza A virus A/Japan/305/1957(H2N2)); test: HA microarray, control antibody
[8] = biological target: recombinant soluble homotrimeric HA of A/Anhui/1/05 (H5N1) (Influenza A virus A/Anhui/1/2005(H5N1)); test: HA microarray, control antibody
[9] = biological target: recombinant soluble homotrimeric HA of A/California/4/09 (H1N1) (Influenza A virus A/California/04/2009(H1N1)); test: HA microarray, control antibody
[10] = biological target: recombinant soluble homotrimeric HA of A/Vietnam/1203/04 (H5N1) (Influenza A virus A/VietNam/1203/2004(H5N1)); test: HA microarray, control antibody
[11] = biological target: recombinant soluble homotrimeric HA of A/Egypt/3300-NAMRU3/08 (H5N1) (Influenza A virus A/Egypt/3300-NAMRU3/2008(H5N1)); test: HA microarray, control antibody
[12] = biological target: recombinant soluble homotrimeric HA of A/Indonesia/5/05 (H5N1) (Influenza A virus A/Indonesia/5/2005(H5N1)); test: HA microarray, control antibody
[13] = biological target: recombinant soluble homotrimeric HA of A/chicken/Vietnam/NCVD-016/08 (H5N1) (Influenza A virus A/chicken/Vietnam/NCVD-016/2008(H5N1)); test: HA microarray, control antibody
[14] = biological target: recombinant soluble homotrimeric HA of A/Hong Kong/2108/03 (H9N2) (Influenza A virus A/HK/2108/2003(H9N2)); test: trimeric HA microarray, transfection supernatant set 1
[15] = biological target: recombinant soluble homotrimeric HA of A/northern shoveler/California/HKWF115/07 (H6) (Influenza A virus A/northern shoveler/California/HKWF115/2007(H6N1)); test: as above
[16] = biological target: recombinant soluble homotrimeric HA of A/Hong Kong/1073/99 (H9N2) (Influenza A virus A/Hong Kong/1073/99 (H9N2)); test: as above

B1: TCN-504 (3251_K17) (antibody, V domains shown)
VH: QVQLQESGPGLVKPSETLSLTCAVSGVSISNIDFYWGWIRQPPGKGLEWIGNIYYTGITFYNPSLSSRVAISIDTSKNQFSLTLTSVTAADTAMYYCARHYGDSEAINDAFDIWGQGTMLTVSS
VL: EIVMTQSPATLSVSPGERATLSCRASQSVGNSLAWYQQRPGQAPRLLIYGASTRATGIPPRFSGSGSGTEFTLTISSLQTEDFAVYYCQQYINWRPLSFGGGTKVEIK
Trimeric HA Binding: RLU [1]: 14300 RLU | Trimeric HA Binding: RLU [2]: 47200 RLU | Trimeric HA Binding: RLU [3]: 14100 RLU | Trimeric HA Binding: RLU [4]: 40500 RLU | Trimeric HA Binding: RLU [5]: 14700 RLU | Trimeric HA Binding: RLU [6]: 24100 RLU | Trimeric HA Binding: RLU [7]: 4090 RLU | Trimeric HA Binding: RLU [8]: 26200 RLU | Trimeric HA Binding: RLU [9]: 3330 RLU | Trimeric HA Binding: RLU [10]: 196 RLU | Trimeric HA Binding: RLU [11]: 44400 RLU | Trimeric HA Binding: RLU [12]: 43300 RLU | Trimeric HA Binding: RLU [13]: 38500 RLU

B2: TCN-523 (5248_A17) (antibody, V domains shown)
VH: QVQLVQSGAEVKKPGSSVKVSCKASGGSFSNYAFSWVRQAPGQGLEWMGGTIPLLGTTNYAQKFQGRVTISADQFTSTAYMELGSLRSEDTAVYYCTRRKMTTAFDSWGQGTLVTVSS
VL: QPVLTQPPSASASLGASVTLTCTLSSAYSNYKVDWYQQRPGKGPRFVMRVGTGGIVGSKGDGIPDRFSVLGSGLNRYLTIKNIQEEDESDYHCGADHGSGSNFVSPYVFGGGTKLTVL
Trimeric HA Binding: RLU [14]: 41 RLU | Trimeric HA Binding: RLU [15]: 9050 RLU | Trimeric HA Binding: RLU [16]: 21700 RLU
